Measured values published in patent publication US12365738B2, “Method of treating an interleukin-11-associated or -mediated fibrotic disease or condition by administering an anti-interleukin-11 receptor subunit alpha (IL-11RA) antibody” (Lassen Therapeutics, Inc., priority 2021, dated 2025).

T1: hIL-11Rα (Homo sapiens, UniProt Q14626)
T1 sequence (Q14626 23-422): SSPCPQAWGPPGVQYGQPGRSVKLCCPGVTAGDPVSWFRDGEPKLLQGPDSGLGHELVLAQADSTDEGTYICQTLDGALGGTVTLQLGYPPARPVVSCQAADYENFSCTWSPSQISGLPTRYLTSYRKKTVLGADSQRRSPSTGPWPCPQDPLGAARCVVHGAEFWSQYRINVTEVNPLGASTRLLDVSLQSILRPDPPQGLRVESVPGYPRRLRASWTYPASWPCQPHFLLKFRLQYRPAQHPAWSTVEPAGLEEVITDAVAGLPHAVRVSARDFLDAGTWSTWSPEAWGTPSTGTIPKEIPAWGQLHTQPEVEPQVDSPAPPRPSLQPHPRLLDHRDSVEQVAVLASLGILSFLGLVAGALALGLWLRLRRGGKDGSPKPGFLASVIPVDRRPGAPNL

T2: hIL-11R (Homo sapiens, UniProt Q14626)
T2 sequence (Q14626 23-422): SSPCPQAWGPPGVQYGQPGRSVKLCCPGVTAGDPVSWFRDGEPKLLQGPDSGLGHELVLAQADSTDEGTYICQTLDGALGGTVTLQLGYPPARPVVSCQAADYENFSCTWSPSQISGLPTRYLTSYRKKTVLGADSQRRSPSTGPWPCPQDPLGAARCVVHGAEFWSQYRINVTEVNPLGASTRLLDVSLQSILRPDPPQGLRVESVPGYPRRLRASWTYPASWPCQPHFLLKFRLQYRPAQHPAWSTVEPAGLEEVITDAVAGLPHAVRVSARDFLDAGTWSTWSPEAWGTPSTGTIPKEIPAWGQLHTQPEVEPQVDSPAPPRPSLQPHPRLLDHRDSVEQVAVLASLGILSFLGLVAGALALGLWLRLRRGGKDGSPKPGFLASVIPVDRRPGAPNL


Tests used:
[1] = system: type VI collagen formation (PRO-C6) in fibrotic human PCLS; test: Fibrotic human precision-cut lung slice (PCLS) model, PRO-C6 ECM remodeling biomarker; type: cell-based; details: for median levels of PRO-C6 compared to the no treatment (media) control: pooled data, all donors and regions, mAb5 0.3, 3.0, 30 μg/mL, nintedanib 1 μM, isotype control 30 μg/mL
Experimental: Tissue slices were prepared from the subpleural and central region of the fibrotic lung from two human end-stage donors with pulmonary fibrosis (IPF and secondary fibrosis) (see, for example, Hess et al., Toxicol In Vitro. 32:347-61, 2016). For both donors, lung tissue samples from two different regional areas (subpleural and central) were used to generate tissue cores used for PCLS. Adjacent cores were used to achieve serial PCLS for the analysis of one treatment as compared to medium treated PCLS from the same cores. This enables the comparison of densely packed fibrotic areas with fibrotic foci with less affected areas. To ensure the fibrotic status, clinical/demographic information for each patient is provided.
Each treatment was tested with three replicates for each lung region and for each donor.
Preparation and incubation of precision-cut lung slices. Lung lobes were canuled and filled with 37° C. warm 2% low-melting agarose/medium solution. Filled lobes were cooled on ice to polymerise agarose. Tissue cores with a diameter of 8 mm were prepared and cut into approximately 300 μm thick slices using a microtome (Krumdieck tissue slicer, Alabama Research and Development, Muniford, AL, USA or Vibratome OTS-5000, Science Services GmbH, Munich) in Earle's Balanced Salts Solution (EBSS). Tissue slices were incubated in Dulbecco's modified Eagle's medium/nutrient mixture F-12 Ham (DMEM) with L-glutamine and 15 mM HEPES without phenol red. Tissue slices were transferred into petri dishes and washed with DMEM for 2 hours. Medium was changed four times every 30 minutes in order to remove cell debris.
Two PCLS per well were left over night in 500 μL DMEM in 24-well plates for a final washing step. Next day, PCLS were treated with experimental treatments or controls (see Table E5) in 250 μl DMEM/F-12 culture medium for 48 hours under normal cell culture conditions (37° C., 5% CO2). Medium contained 100 units/mL penicillin and 100 μg/mL streptomycin and was not supplemented with fetal calf serum. […]
Extracellular matrix remodeling evaluation. Biomarkers that reflect ECM remodeling were assessed in supernatant by Nordic Bioscience using the following competitive ELISA: PRO-C6 (C-terminal of type VI collagen C5 domain released as type VI collagen is incorporated into the matrix; measured on mesoscale platform [hsPRO-C6]): Reflects type VI collagen formation. […]
Statistics. […] Pooled data are presented as percentage of the “no treatment” control, calculated for individual regions and donors. Statistical significant differences were evaluated on pooled data by Kruskal-Wallis with Dunn's multiple comparisons test, comparing to the “no treatment” control. […]

hIL-11Rα = biological target: T1, hIL-11Rα; test: Kinetic binding analysis by biolayer interferometry (protein G biosensors, Octet RED96e)
Experimental: Association was carried out in the presence of a 2-fold dilution series of hIL-11Rα and was allowed to proceed for 120 seconds; dissociation was measured for 300 to 1200 seconds.

[2] = system: IL-11 signaling (STAT3 Reporter (Luciferase)-HEK293 cell line); test: Cell-based STAT3 reporter (luciferase) HEK293 assay for inhibiting IL-11 signaling; set-up: species or system human
Experimental: Further testing of the lead mAbs was carried out using a cell-based reporter assay. IL-11 is reported to signal through the STAT3 and ERK pathways. Therefore, a STAT3 reporter cell line in which firefly luciferase gene expression is driven by STAT3 response elements located upstream of a minimal TATA promoter was selected to analyze mAb functional activity. In these cells, IL-11 can activate the endogenous STAT3 allowing it to bind to the STAT3 response elements, inducing transcription of the luciferase reporter gene and resulting in readily detectable luciferase expression. Antibodies to IL-11R which block IL-11 signaling should inhibit expression of IL-11 driven luciferase in these cells.
The STAT3 Reporter (Luciferase)—HEK293 cell line (BPS Bioscience, catalog #79800-P) was grown, passaged, and assayed as per manufacturer's protocols. Cells were added at 25,000 cells per well in a 96-well microtiter dish and incubated at 37° C. for 30-45 min. in 5% CO2 humidified air. Anti-IL-11R mAbs were added as a 3-fold dilution series in duplicate columns or rows, and plates were returned to the incubator for an additional 1 h at 37° C. after which 40 ng/mL IL-11 was added to each well to initiate the signal transduction cascade and luciferase production. Plates were incubated for 18-24 hours at 37° C. and luciferase was detected using a One-Step Luciferase Assay System (BPS Bioscience, cat. no. 60690-1) as per manufacturer's instructions.

hIL-11R = biological target: T2, hIL-11R; test: Alternate biolayer interferometry assay (AHC biosensors) ranking mAbs 16-32 against mAb5; type: binding; details: AHC biosensors
Source text: A further series of antibodies were designed in which the residue at Kabat position 31 of the heavy chain was varied (mAbs 16-32). In this case an alternate biolayer interferometry assay was used to initially rank the antibodies compared to mAb5, the closest relative in sequence to mAbs 16-32. MAbs were loaded onto anti-human constant domain (AHC) biosensors (FortéBio) in 10×kinetics buffer consisting of PBS, 0.1% BSA, 0.02% polysorbate 20 (TWEEN™) for 120 s to achieve a spectral shift value of 0.8 to 1.2 nm. Association was carried out in the presence of 2-fold dilution series of hIL-11R and was allowed to proceed for 120 s. Dilution series started 10 nM. The dissociation in 10×kinetics buffer for 1200 s. Binding kinetic measurements were taken on an Octet RED96e instrument.

Row | ka (hIL-11Rα) | kd (hIL-11Rα) | ka (hIL-11R) | kd (hIL-11R) | Molecule | median levels of PRO-C6 compared to the no treatment (media) control ([1]; 48 hours) | potency at inhibiting IL-11 signaling relative to TS7 / 8E2 (in words) [2] | dose relation of PRO-C6 reduction ([1]; 0.3, 3.0, 30 μg/mL, 48 hours) | effects on ECM remodeling relative to nintedanib ([1]; in several cases)
1 | 65100 M⁻¹ s⁻¹ | <1e-07 s⁻¹ | – | – | mAb8: anti-IL-11Rα antibody, human IgG4 (S228P), kappa; VH SEQ ID NO: 207, VL SEQ ID NO: 208 (antibody, V domains shown, human IgG4 S228P and kappa constant regions; mAb8 VH Chain; mAb8 VL Chain) VH: EVQLLESGGGLVQPGGSLRLSCAASGFTFSSYAMSWVRQAPGKGLEWVSSIVPYGDLTQYADSVKGRFTISRDNSKNTLYLQMNSLRAEDTAVYYCAKGPGWGSFDLWGRGTLVTVSS VL: DIQMTQSPSSLSASVGDRVTITCQASQDINNYLNWYQQKPGKAPKLLIYDASNLQTGVPSRFSGSGSGTDFTFTISSLQPEDIATYYCQQHESQSPTFGPGTKVDIK | – | less potent than TS7 | – | –
2 | 32900 M⁻¹ s⁻¹ | 0.0181 s⁻¹ | – | – | mAb11: anti-IL-11Rα antibody, human IgG4 (S228P), kappa; VH SEQ ID NO: 213, VL SEQ ID NO: 214 (antibody, V domains shown, IgG4 S228P kappa constant regions; mAb11 VH Chain; mAb11 VL Chain) VH: EVQLLESGGGLVQPGGSLRLSCAASGFTFSWYSMTWVRQAPGKGLEWVSSIVDYGDLTQYADSVKGRFTISRDNSKNTLYLQMNSLRAEDTAVYYCAKGPGWGSFDLWGRGTLVTVSS VL: DIQMTQSPSSLSASVGDRVTITCQASQDINNYLNWYQQKPGKAPKLLIYDASNLQTGVPSRFSGSGSGTDFTFTISSLQPEDIATYYCQQHESQSPTFGPGTKVDIK | – | less potent than TS7 | – | –
3 | 840000 M⁻¹ s⁻¹ | 0.000416 s⁻¹ | – | – | mAb10: anti-IL-11Rα antibody, human IgG4 (S228P), kappa; VH SEQ ID NO: 211, VL SEQ ID NO: 212 (antibody, V domains shown, IgG4 S228P kappa constant regions; mAb10 VH Chain; mAb10 VL Chain) VH: EVQLLESGGGLVQPGGSLRLSCAASGFTFSWYSMTWVRQAPGKGLEWVSSIVAYGDLTQYADSVKGRFTISRDNSKNTLYLQMNSLRAEDTAVYYCAKGPGWGSFDLWGRGTLVTVSS VL: DIQMTQSPSSLSASVGDRVTITCQASQDINNYLNWYQQKPGKAPKLLIYDASNLQTGVPSRFSGSGSGTDFTFTISSLQPEDIATYYCQQHESQSPTFGPGTKVDIK | – | less potent than TS7 | – | –
4 | 58100 M⁻¹ s⁻¹ | <1e-07 s⁻¹ | – | – | mAb12: anti-IL-11Rα antibody, human IgG4 (S228P), kappa; VH SEQ ID NO: 215, VL SEQ ID NO: 216 (antibody, V domains shown, IgG4 S228P kappa constant regions; mAb12 VH Chain; mAb12 VL Chain) VH: EVQLLESGGGLVQPGGSLRLSCAASGFTFSWYSMTWVRQAPGKGLEWVSSIVPYGDLTQYADSVKGRFTISRDNSKNTLYLQMNSLRAEDTAVYYCAKGPGWYSFDLWGRGTLVTVSS VL: DIQMTQSPSSLSASVGDRVTITCQASQDINNYLNWYQQKPGKAPKLLIYDASNLQTGVPSRFSGSGSGTDFTFTISSLQPEDIATYYCQQHESQSPTFGPGTKVDIK | – | comparable in potency to TS7 | – | –

Further lines, the molecule ahead of its results:

Row | Molecule | ka (hIL-11Rα) | kd (hIL-11Rα) | ka (hIL-11R) | kd (hIL-11R) | median levels of PRO-C6 compared to the no treatment (media) control ([1]; 48 hours) | potency at inhibiting IL-11 signaling relative to TS7 / 8E2 (in words) [2] | dose relation of PRO-C6 reduction ([1]; 0.3, 3.0, 30 μg/mL, 48 hours) | effects on ECM remodeling relative to nintedanib ([1]; in several cases)
5 | COC(=O)c1ccc2c(c1)NC(=O)/C2=C(\Nc1ccc(N(C)C(=O)CN2CCN(C)CC2)cc1)c1ccccc1 [nintedanib, Nintedanib, reference compound] | – | – | – | – | decreased | – | – | –
6 | mAb5: anti-IL-11Rα antibody, human IgG4 (S228P), kappa; VH SEQ ID NO: 201, VL SEQ ID NO: 202 (antibody, V domains shown, IgG4 S228P kappa constant regions; mAb5 VH Chain; mAb5 VL Chain) VH: EVQLLESGGGLVQPGGSLRLSCAASGFTFSWYSMTWVRQAPGKGLEWVSSIVPYGDLTQYADSVKGRFTISRDNSKNTLYLQMNSLRAEDTAVYYCAKGPGWGSFDLWGRGTLVTVSS VL: DIQMTQSPSSLSASVGDRVTITCQASQDINNYLNWYQQKPGKAPKLLIYDASNLQTGVPSRFSGSGSGTDFTFTISSLQPEDIATYYCQQHESQSPTFGPGTKVDIK | 63700 M⁻¹ s⁻¹ | <1e-07 s⁻¹ | 490000 M⁻¹ s⁻¹ | 2.5e-05 s⁻¹ | decreased | more potent at inhibiting IL-11 signaling than either of TS7 or 8E2 | reduced PRO-C6 in a dose-dependent manner | better effects on ECM remodeling
7 | mAb7: anti-IL-11Rα antibody, human IgG4 (S228P), kappa; VH SEQ ID NO: 205, VL SEQ ID NO: 206 (antibody, V domains shown, human IgG4 S228P and kappa constant regions; mAb7 VH Chain; mAb7 VL Chain) VH: EVQLLESGGGLVQPGGSLRLSCAASGFTFSNYAMSWVRQAPGKGLEWVSSIVPYGDLTQYADSVKGRFTISRDNSKNTLYLQMNSLRAEDTAVYYCAKGPGWGSFDLWGRGTLVTVSS VL: DIQMTQSPSSLSASVGDRVTITCQASQDINNYLNWYQQKPGKAPKLLIYDASNLQTGVPSRFSGSGSGTDFTFTISSLQPEDIATYYCQQHESQSPTFGPGTKVDIK | 63500 M⁻¹ s⁻¹ | <1e-07 s⁻¹ | – | – | – | less potent than TS7 | – | –
